# According to paper PMC4822050, “Hemi-methylated DNA opens a closed conformation of UHRF1 to facilitate its histone recognition” (Nature Communications, 2016):
# T1: UHRF1^D334A&Δ627–674 (human, UniProt Q96T88 1-793, D334A | Δ627–674)
# T1 construct: human UHRF1 (1–793)
# T1 sequence (looked up): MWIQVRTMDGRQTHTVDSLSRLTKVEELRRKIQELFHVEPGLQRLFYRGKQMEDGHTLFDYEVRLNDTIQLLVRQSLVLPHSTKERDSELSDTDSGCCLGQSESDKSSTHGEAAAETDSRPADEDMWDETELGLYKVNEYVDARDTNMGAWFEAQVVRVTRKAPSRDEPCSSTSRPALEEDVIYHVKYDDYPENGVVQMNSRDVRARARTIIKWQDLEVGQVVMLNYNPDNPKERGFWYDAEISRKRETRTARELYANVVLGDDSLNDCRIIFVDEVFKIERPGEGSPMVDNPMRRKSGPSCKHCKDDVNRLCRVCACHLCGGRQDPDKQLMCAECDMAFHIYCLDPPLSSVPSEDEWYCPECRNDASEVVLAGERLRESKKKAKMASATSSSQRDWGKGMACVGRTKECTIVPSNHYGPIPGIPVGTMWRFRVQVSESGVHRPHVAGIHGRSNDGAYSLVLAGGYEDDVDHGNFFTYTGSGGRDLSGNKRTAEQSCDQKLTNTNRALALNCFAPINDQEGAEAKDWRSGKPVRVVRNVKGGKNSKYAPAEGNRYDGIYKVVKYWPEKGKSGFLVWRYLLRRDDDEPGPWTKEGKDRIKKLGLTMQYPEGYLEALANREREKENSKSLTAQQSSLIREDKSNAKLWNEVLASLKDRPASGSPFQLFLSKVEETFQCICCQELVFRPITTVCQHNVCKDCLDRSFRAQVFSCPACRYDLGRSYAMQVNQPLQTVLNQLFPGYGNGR
# Target: T1, UHRF1^D334A&Δ627–674
# Test: ITC; 0.05 mM protein in the cell, 0.5 mM protein or peptide in the syringe, iTC200, 18 °C, 10 mM HEPES pH 8.0, 100 mM NaCl
# Conditions: both partners purified
binder,measurement,value
"ARTKQTARKSTGGKAPR (peptide, UniProt P68431 2-18, looked up, trimethyl-lysine at K9, histone H3, residues 1–17) [H3K9me3 peptide (1–17)]",Kd,8.69 µM
